Here are results for 3 molecules from article PMC4288178, “CRISPR RNA binding and DNA target recognition by purified Cascade complexes from Escherichia coli”.

Data set [1] has as its target T1, Cascade- (crRNA-free Cse1-Cse2-Cas7-Cas5-Cas6e) (Escherichia coli (K12; expressed in …, UniProt Q46901;P76632;Q46899;Q46898;Q46897 1-502;1-160;1-363;1-224;1-199).
T1 sequence 1: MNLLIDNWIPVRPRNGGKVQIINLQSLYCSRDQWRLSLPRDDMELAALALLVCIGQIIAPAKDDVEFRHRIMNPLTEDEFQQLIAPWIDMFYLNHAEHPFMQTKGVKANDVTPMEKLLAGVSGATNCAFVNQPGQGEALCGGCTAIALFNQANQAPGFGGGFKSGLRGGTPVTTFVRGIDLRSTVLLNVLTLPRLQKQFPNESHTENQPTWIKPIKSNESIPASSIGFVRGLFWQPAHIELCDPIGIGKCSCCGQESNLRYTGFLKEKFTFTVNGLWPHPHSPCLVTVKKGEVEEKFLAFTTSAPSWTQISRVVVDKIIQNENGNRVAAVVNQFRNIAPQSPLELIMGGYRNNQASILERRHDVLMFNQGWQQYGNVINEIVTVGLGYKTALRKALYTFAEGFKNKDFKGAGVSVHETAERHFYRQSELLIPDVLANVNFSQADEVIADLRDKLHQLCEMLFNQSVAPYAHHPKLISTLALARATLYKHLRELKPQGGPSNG
T1 sequence 2: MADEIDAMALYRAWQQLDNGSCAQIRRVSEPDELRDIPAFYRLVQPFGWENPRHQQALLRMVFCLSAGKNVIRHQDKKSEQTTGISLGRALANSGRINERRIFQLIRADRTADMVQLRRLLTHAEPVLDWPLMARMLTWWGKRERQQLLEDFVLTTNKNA
T1 sequence 3: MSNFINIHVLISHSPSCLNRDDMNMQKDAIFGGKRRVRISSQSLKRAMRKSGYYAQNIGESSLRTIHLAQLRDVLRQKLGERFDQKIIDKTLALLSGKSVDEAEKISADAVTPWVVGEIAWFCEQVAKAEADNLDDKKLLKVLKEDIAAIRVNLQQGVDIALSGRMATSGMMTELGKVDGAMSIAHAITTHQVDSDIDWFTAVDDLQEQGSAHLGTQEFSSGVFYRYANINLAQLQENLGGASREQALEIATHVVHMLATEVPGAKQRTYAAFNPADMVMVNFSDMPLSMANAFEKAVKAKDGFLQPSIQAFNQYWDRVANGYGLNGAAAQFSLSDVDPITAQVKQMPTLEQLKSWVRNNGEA
T1 sequence 4: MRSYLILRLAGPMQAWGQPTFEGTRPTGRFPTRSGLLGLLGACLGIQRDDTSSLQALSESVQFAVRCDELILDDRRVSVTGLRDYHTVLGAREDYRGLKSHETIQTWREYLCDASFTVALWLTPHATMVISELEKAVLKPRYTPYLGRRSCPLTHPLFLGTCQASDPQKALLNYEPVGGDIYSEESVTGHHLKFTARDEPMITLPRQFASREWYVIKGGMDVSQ
T1 sequence 5: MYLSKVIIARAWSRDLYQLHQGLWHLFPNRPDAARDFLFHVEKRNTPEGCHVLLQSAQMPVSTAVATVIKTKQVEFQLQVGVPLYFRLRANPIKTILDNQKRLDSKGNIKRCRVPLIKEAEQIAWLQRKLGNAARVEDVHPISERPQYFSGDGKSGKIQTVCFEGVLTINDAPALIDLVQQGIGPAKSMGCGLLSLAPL
The data set is described as follows: EMSA; loaded with crRNA MS2; EMSA: 20 mM Tris-HCl pH 8, 20 mM NaCl, 10 nM 32P probe, 30 min at 30 or 37 C, 6% native PAGE; loading 10 min at 30 C with crRNA (0.5 uM in Fig 3). Kd values are printed only in Fig 5A (not in the material). Particulars: protein: recombinant; tags: N-terminal 6His on Cse1 (CasA); copies: 1;2;6;1;1; label: DNA 5'-32P; guide + blunt duplex. Background: A gel shift assay detects complexes by their altered migration in electrophoresis.

The target of data set [2] is T1, Cascade- (crRNA-free …). The data set is described as follows: EMSA; EMSA: 20 mM Tris-HCl pH 8, 20 mM NaCl, 10 nM 32P probe, 30 min at 30 or 37 C, 6% native PAGE; loading 10 min at 30 C with crRNA (0.5 uM in Fig 3). Kd values are printed only in Fig 5A (not in the material). The following applies: protein: recombinant; tags: N-terminal 6His on Cse1 (CasA); copies: 1;2;6;1;1; label: 5'-32P; 3' handle hairpin.

The target of data set [3] is T2, Cascade+ (Cascade co-expressed with g8 crRNA) (Escherichia coli (K12; expressed in …, UniProt Q46901;P76632;Q46899;Q46898;Q46897 1-502;1-160;1-363;1-224;1-199).
T2 sequence 1: T1 sequence 1
T2 sequence 2: T1 sequence 2
T2 sequence 3: T1 sequence 3
T2 sequence 4: T1 sequence 4
T2 sequence 5: T1 sequence 5
The data set is described as follows: EMSA; co-expressed g8 crRNA; EMSA: 20 mM Tris-HCl pH 8, 20 mM NaCl, 10 nM 32P probe, 30 min at 30 or 37 C, 6% native PAGE; loading 10 min at 30 C with crRNA (0.5 uM in Fig 3). Kd values are printed only in Fig 5A (not in the material). Particulars: protein: recombinant; tags: N-terminal 6His on Cse1 (CasA); copies: 1;2;6;1;1; label: 5'-32P; 3' handle hairpin.

In data set [4] the target is T2, Cascade+ (Cascade co-expressed with g8 …). Kind of data set: EMSA; co-expressed crRNA; EMSA: 20 mM Tris-HCl pH 8, 20 mM NaCl, 10 nM 32P probe, 30 min at 30 or 37 C, 6% native PAGE; loading 10 min at 30 C with crRNA (0.5 uM in Fig 3). Kd values are printed only in Fig 5A (not in the material). The following applies: protein: recombinant; tags: N-terminal 6His on Cse1 (CasA); copies: 1;2;6;1;1; label: DNA 5'-32P; guide + blunt duplex.

Data set [5] deals with T1, Cascade- (crRNA-free …). The data set is described as follows: EMSA; loaded with crRNA1; EMSA: 20 mM Tris-HCl pH 8, 20 mM NaCl, 10 nM 32P probe, 30 min at 30 or 37 C, 6% native PAGE; loading 10 min at 30 C with crRNA (0.5 uM in Fig 3). Kd values are printed only in Fig 5A (not in the material). The following applies: protein: recombinant; tags: N-terminal 6His on Cse1 (CasA); copies: 1;2;6;1;1; label: DNA 5'-32P; guide + blunt duplex.

B1: crRNA MS2 + MS2 dsDNA (mixed)
RNA: AUAAACCGGCACCGACCCCUUUCUGGAGGUACAUAUUCAUGAGUUCCCCGCGCCAGCGGGG
DNA 1: TGAGCCGGCGTCTGATAAAGGCACCGACCCCTTTCTGGAGGTACATATTCATATCAGGCTCCTTACAGGCAG
DNA 2: CTGCCTGTAAGGAGCCTGATATGAATATGTACCTCCAGAAAGGGGTCGGTGCCTTTATCAGACGCCGGCTCA
Regarding B1, the binding result in data set [1] is given as “binds”.

B2: crRNA1 (-8/+21) (structured_RNA)
RNA: AUAAACCGCUGUCUUUCGCUGCUGAGGGUGACGAUCCGCCGAGUUCCCCGCGCCAGCGGGG
modifications: 2',3'-cyclic phosphate at 3' end
For B2, the binding result in data set [2] and in data set [3] was “binds” throughout.

B3: g8 crRNA1 + g8 dsDNA (mixed)
RNA: B2 RNA
DNA 1: CAGGGAGTTAAAGGCCGCTTTTGCGGGATCGTCACCCTCAGCAGCGAAAGACAGCATCGGAACGAGGGTAGCAACGGCT
DNA 2: AGCCGTTGCTACCCTCGTTCCGATGCTGTCTTTCGCTGCTGAGGGTGACGATCCCGCAAAAGCGGCCTTTAACTCCCTG
modifications: 2',3'-cyclic phosphate on crRNA
B3: the binding result in data set [4] and in data set [5] was “binds” in each case.
